Measurements taken from US20220184222A1, “BICYCLE TOXIN CONJUGATES AND USES THEREOF” (BicycleTx Limited, priority 2019, published 2022).
“Also recorded” adds a separate entry of the source. Starred links: 1 amine or outer side, 2 acyl side, 3 side chain; linkers in the order of their positions; H or OH if unused. Non-standard residues stand in square brackets, D forms with d. Residues, ends and D or L forms follow the SMILES beside them. *: point of attachment. Dolaproine = CO[C@@H]([C@@H]1CCCN1)[C@@H](C)C(=O)O; Dil = CC[C@H](C)[C@H](NC)[C@@H](CC(=O)O)OC; PABC = O=C(OCc1ccc(N[*:1])cc1)[*:2]; X1 = O=C(CCCC(=O)*)ON1C(=O)CCC1=O; X2 = C[C@@H](N*)[C@@H](O)c1ccccc1; Cit = NC(=O)NCCC[C@H](N)C(=O)O; NMeV = CN[C@H](C(=O)O)C(C)C

Assays:
[1] = In vivo PK in PC-3 CDX model: LC-MS quantitation of MMAE and BT5528 in plasma and tumour (Example 4); set-up: species or system Mus Musculus; details: single i.v. dose of BT5528
Method: (§1) The objective of the research is to evaluate the in vivo PK/PD of test agents in treatment of PC-3 CDX model in Balb/c nude mice.
(§2) Each mouse was inoculated subcutaneously at the right flank with PC-3 tumor cells (10×10^6) in 0.2 mL of PBS for tumor development. The animals were randomized and dosed when the average tumor volume reached approximately 440 mm^3 for the PK/PD study. The test article administration and time points in each group were shown in the experimental design table.
(§3) Mice were randomly grouped based on tumor volume and dosed as experimental design. Plasma, serum, muscle and tumors were collected at 1 h, 2 h, 8 h, 24 h, 48 h, 72 h and 96 h post dosing.
Two protease inhibitor products were used: Complete™ mini EDTA-free protease inhibitor cocktail tablets and AEBSF (200 mM, prepared by dissolving 100 mg in water (2086 μL)). The AEBSF solution was stored at −20° C. when not in use. For the dilution of plasma, a solution (inhibitor solution A) was prepared by dissolving 12 Complete™ tablets in 50/50 methanol/water (12 mL) and adding 200 mM AEBSF (12 μL). […]
Samples, standards, QCs and blanks were transferred (10 μL diluted plasma, 30 μL tissue homogenate) to a 96-well plate on ice. […] The plate was mixed briefly and sealed ready for injection onto the LC-MS/MS. […]

pHH3 = experiment: In vivo PD in PC-3 CDX model: tumor pHH3 IHC, mitotic arrest (Example 4); set-up: species or system Mus Musculus; details: single dose
Method: as §1, §2, §3
3 tumors of a mouse cohort were embed into 1 FFPE block.
• 5 μm FFPE tissue section loaded on Ventana XT; • Deparaffinization was selected; • EDTA based CC1 Standard heat antigen retravel was selected; • Option 1 (Protein blocker, Invitrogen Cat #1890588) was selected and incubate for 32 Min; • CC3 antibody (CST Cat #9661) 1:200 dilution was applied and incubated for 60 min at 37° C. • Apply One Drop of [OMap anti-Rb HRP] […]

Structure (SMILES): CC[C@H](C)[C@@H]([C@@H](CC(=O)N1CCC[C@H]1[C@H](OC)[C@@H](C)C(=O)N[C@H](C)[C@@H](O)c1ccccc1)OC)N(C)C(=O)[C@@H](NC(=O)[C@H](C(C)C)N(C)C(=O)OCc1ccc(NC(=O)[C@H](CCCNC(N)=O)NC(=O)[C@@H](NC(=O)CCCC(=O)ON2C(=O)CCC2=O)C(C)C)cc1)C(C)C [BT5528] (X1-V[Cit][PABC][NMeV]V[Dil][Dolaproine]-X2)
- MMAE concentrations in tumour [1]: accumulation of MMAE in tumor tissue; also recorded: high MMAE concentrations in tumour, which is stable from 2h to >48h
- exposure of BT5528 and MMAE in plasma [1]: short systemic exposure; also recorded: transient exposure of both BT5528 and MMAE in plasma
- mitotic arrest in tumor measurable by pHH3 IHC, time after dose (pHH3): ≤ 24 hours
- mitotic arrest of tumor cells, time post-dose (pHH3): 24 to 48 h
